Results on 1 molecule are retold here after patent publication EP4371564A2.

This test has as its target integrin molecules on human cells. Put plainly: cell-based or functional assay.

B1: RGD-Hoc (SEQ ID NO: 19), P18056 1-376 (protein)
chain: CDCRGDCFCSAMTFTVDITPKTPTGVIDETKQFTATPSGQTGGGTITYAWSVDNVPQDGAEATFSYVLKGPAGQKTIKVVATNTLSEGGPETAEATTTITVKNKTQTTTLAVTPASPAAGVIGTPVQFTAALASQPDGASATYQWYVDDSQVGGETNSTFSYTPTTSGVKRIKCVAQVTATDYDALSVTSNEVSLTVNKKTMNPQVTLTPPSINVQQDASATFTANVTGAPEEAQITYSWKKDSSPVEGSTNVYTVDTSSVGSQTIEVTATVTAADYNPVTVTKTGNVTVTAKVAPEPEGELPYVHPLPHRSSAYIWCGWWVMDEIQKMTEEGKDWKTDDPDSKYYLHRYTLQKMMKDYPEVDVQESRNGYIIHKTALETGIIYTYPKLAAALEHHHHHH
With B1, the luciferase activity amounted to 5 fold.
